Like-named read-outs stand apart in the source and are kept apart here.
How the values were obtained:
[1] = molecular target: FcgRIIIa receptor (CD16a) on human NK cells (human) (UniProt P08637); test: cell-based or functional assay
[2] = molecular target: C1q complement (rabbit serum as complement source) (rabbit); test: cell-based or functional assay
[3] = molecular target: C1q complement (rabbit serum as complement source) (rabbit); test: cell-based or functional assay; remark: listed apart in the source
[4] = molecular target: C1q complement (rabbit serum as complement source) (rabbit); test: cell-based or functional assay; remark: listed apart in the source
[5] = molecular target: CD32aH (FcgRIIa receptor, H at position 131) (human) (UniProt P12318); test: ELISA, purified IgG on coated receptor, ratio against wild-type
[6] = molecular target: CD32aR (FcgRIIa receptor, R at position 131) (human) (UniProt P12318); test: as above
[7] = molecular target: CD32b (FcgRIIb receptor) (human) (UniProt P31994); test: as above
[8] = molecular target: CD64 (UniProt P12314); test: as above
Sequence of CD64 (P12314 16-288 limits assumed): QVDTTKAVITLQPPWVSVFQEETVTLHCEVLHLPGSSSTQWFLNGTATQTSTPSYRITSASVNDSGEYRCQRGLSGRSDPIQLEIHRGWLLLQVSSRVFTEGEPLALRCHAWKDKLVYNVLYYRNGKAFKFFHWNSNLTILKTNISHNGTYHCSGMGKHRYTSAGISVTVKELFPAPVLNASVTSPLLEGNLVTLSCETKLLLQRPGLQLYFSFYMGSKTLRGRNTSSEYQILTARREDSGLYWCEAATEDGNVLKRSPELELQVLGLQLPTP

Sequence of CD32b (FcgRIIb receptor) (human) (P31994 46-217): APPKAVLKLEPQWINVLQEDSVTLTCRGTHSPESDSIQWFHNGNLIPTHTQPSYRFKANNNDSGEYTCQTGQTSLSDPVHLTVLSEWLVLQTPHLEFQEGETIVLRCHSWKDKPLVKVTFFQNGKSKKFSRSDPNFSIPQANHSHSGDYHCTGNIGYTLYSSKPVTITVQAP
Sequence of FcgRIIIa receptor (CD16a) on human NK cells (human) (P08637 17-254): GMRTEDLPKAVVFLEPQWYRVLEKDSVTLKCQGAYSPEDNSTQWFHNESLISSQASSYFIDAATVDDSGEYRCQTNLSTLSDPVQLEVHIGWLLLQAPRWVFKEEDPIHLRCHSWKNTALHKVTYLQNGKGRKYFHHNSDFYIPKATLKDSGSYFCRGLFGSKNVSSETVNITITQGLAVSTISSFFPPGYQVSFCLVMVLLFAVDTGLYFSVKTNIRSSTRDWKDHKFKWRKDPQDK
Sequence of CD32aH (FcgRIIa receptor, H at position 131) (human) (P12318 34-217): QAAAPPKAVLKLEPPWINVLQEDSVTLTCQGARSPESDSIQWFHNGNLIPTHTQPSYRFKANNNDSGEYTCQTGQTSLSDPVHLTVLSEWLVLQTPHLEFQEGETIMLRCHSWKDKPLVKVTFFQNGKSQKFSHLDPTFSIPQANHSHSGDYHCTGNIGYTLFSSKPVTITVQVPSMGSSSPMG

Row | ADCC, EC45: Antibody concentration (ng/ml) giving 45% maximum lysis of an internal control [1] [ng/mL] | ADCC, Ratio [WT]/[antibody] [1] | CDC, Antibody concentration (ng/ml) giving 50% lysis of an internal control [2] [ng/mL] | CDC, Ratio [WT]/[antibody] [2] | CDC [3] | ADCC [1] | ADCC, EC50: Antibody concentration (ng/ml) giving 50% maximum lysis of an internal control [1] [ng/mL] | CDC, Antibody concentration (ng/ml) giving 50% lysis of an internal control [4] [ng/mL] | CDC, Ratio [WT]/[antibody] [4] | ELISA ratio (purified antibodies) [5] | ELISA ratio (purified antibodies) [6] | ELISA ratio (purified antibodies) [7] | ELISA ratio (purified antibodies) [8] | CDC, Antibody concentration (ng/ml) giving 50% lysis of an internal control [3] [ng/mL] | CDC, Ratio [WT]/[antibody] [3] | Substance
1 | 1.7 | 0.94 | 126 | 1.06 |  |  |  |  |  |  |  |  |  |  |  | anti-CD20 IgG variant Q4B-68 (T307P, A378V, T394P) (antibody)
2 |  | 18.4 |  |  | 7.6 | 18.4 | 0.57 | 31 | 7.64 | 1.1 | 1.3 | 1.6 | 1.3 |  |  | anti-CD20 IgG variant J3A-28 (E333G, A378T, V397M) (antibody)
3 |  | 30.9 |  |  | 3.2 | 30.9 | 0.34 | 74.1 | 3.2 | 1.3 | 4.3 | 3.1 | 1.5 |  |  | anti-CD20 IgG variant A3A-184A (K334N, P352S, V397M, A378V) (antibody)
4 |  |  |  |  |  |  |  |  |  |  |  |  |  | 210 | 1.25 | anti-CD20 IgG variant J3B-16 (S267G, A378T, V397M) (antibody)
5 |  | 3.75 |  |  |  |  | 2.8 | 85.7 | 2.76 |  |  |  |  |  |  | anti-CD20 IgG variant G3A-139 (T307N, V323I) (antibody)
6 |  |  |  |  | 12.2 | 9.7 |  |  |  | 1 | 1.1 | 1 | 1.6 | 38.7 | 6.77 | anti-CD20 IgG variant J3B-118 (P396L, N421T) (antibody)
7 | 18.7 | 0.86 | 179 | 0.74 |  |  |  |  |  |  |  |  |  |  |  | anti-CD20 IgG variant N3A-27 (K290E, A378V, K392R, S440G) (antibody)
8 |  | 10.8 |  |  | 11 | 10.8 | 0.97 | 21.6 | 11 | 2.7 | 1.8 | 3.7 | 1.4 |  |  | anti-CD20 IgG variant J3B-118A (P396L, N421T, A378V) (antibody)
9 |  | 0.64 |  |  |  |  | 16.3 | 107 | 2.22 |  |  |  |  |  |  | anti-CD20 IgG variant K3B-87 (V323I, F405L) (antibody)
10 |  | 8.28 |  |  | 1.8 | 8.3 | 1.27 | 132 | 1.79 | 2.61 | 1.7 | 1.7 | 1.3 |  |  | anti-CD20 IgG variant J3A-16 (N286Y, P352S, A378V) (antibody)

The next lines start with the substance.

Row | Substance | ADCC, EC45: Antibody concentration (ng/ml) giving 45% maximum lysis of an internal control [1] [ng/mL] | ADCC, Ratio [WT]/[antibody] [1] | CDC, Antibody concentration (ng/ml) giving 50% lysis of an internal control [2] [ng/mL] | CDC, Ratio [WT]/[antibody] [2] | CDC [3] | ADCC [1] | ADCC, EC50: Antibody concentration (ng/ml) giving 50% maximum lysis of an internal control [1] [ng/mL] | CDC, Antibody concentration (ng/ml) giving 50% lysis of an internal control [4] [ng/mL] | CDC, Ratio [WT]/[antibody] [4] | ELISA ratio (purified antibodies) [5] | ELISA ratio (purified antibodies) [6] | ELISA ratio (purified antibodies) [7] | ELISA ratio (purified antibodies) [8] | CDC, Antibody concentration (ng/ml) giving 50% lysis of an internal control [3] [ng/mL] | CDC, Ratio [WT]/[antibody] [3]
11 | anti-CD20 IgG variant P4B-89 (T307P, T366A, A378V) (antibody) | 3.6 | 0.44 | 115 | 1.16 |  |  |  |  |  |  |  |  |  |  | 
12 | anti-CD20 IgG variant DL4A-54 (P352L, Q418P) (antibody) |  | < 0.002 |  |  |  |  | > 5000 | 165 | 1.44 |  |  |  |  |  | 
13 | anti-CD20 IgG variant A3A-184 (K334N, P352S, V397M) (antibody) |  |  |  |  | 2.2 | 5.3 |  |  |  | 1.33 | 3.2 | 3.3 | 1.4 | 210 | 1.25
14 | anti-CD20 IgG variant O3A-86 (K248E, K290E, N361H, P396L) (antibody) | 4.4 | 0.36 | 44 | 3.02 |  |  |  |  |  |  |  |  |  |  | 
15 | anti-CD20 IgG variant G3A-103 (K248E, A378V) (antibody) |  | 33.9 |  |  | 7.1 | 33.9 | 0.31 | 33.3 | 7.1 | 0.5 | 0.9 | 1.2 | 1.2 |  | 
16 | anti-CD20 IgG variant N3A-32 (K326T, K334N, P352S, N421T) (antibody) | 2.9 | 0.55 | 66 | 2.02 |  |  |  |  |  |  |  |  |  |  | 
17 | anti-CD20 IgG variant J3B-23 (N286I, A378V, F423Y) (antibody) |  |  |  |  | 2.4 | 18.4 | 0.57 |  |  |  |  |  |  |  | 
18 | anti-CD20 IgG variant QL2A-16 (K248E, N421T) (antibody) |  | 2.41 |  |  |  |  | 4.36 | 51.5 | 4.59 |  |  |  |  |  | 
19 | anti-CD20 IgG variant G3A-88 (K320E, T394P, G402D) (antibody) |  | 1.3 |  |  | 0.9 | 1.3 | 8.07 | 274 | 0.86 | 2.94 | 3.7 | 3.9 | 2.4 |  | 
20 | anti-CD20 IgG variant K3B-01 (N315D, N361H, P396L) (antibody) |  | 15.2 |  |  | 4 | 15.2 | 0.69 | 59.6 | 3.97 | 5.7 | 1 | 1 | 2.3 |  | 
21 | anti-CD20 IgG variant G3A-43 (A231V, A378V) (antibody) |  |  |  |  | 2.8 | 12 |  |  |  | 5.3 | 3.6 | 2.7 | 1.4 | 168 | 1.55
22 | anti-CD20 IgG variant O3A-44 (A378V, K439R) (antibody) | 2.6 | 0.62 | 129 | 1.03 |  |  |  |  |  |  |  |  |  |  | 
23 | anti-CD20 IgG variant J3A-06 (A378T, V397M, V412M) (antibody) |  | 8.28 |  |  | 3.7 | 8.3 | 1.27 | 64.1 | 6.7 | 0.84 | 2 | 2.4 | 1.3 |  | 
24 | anti-CD20 IgG variant N3A-58 (V284L, K334R, A378V, K447N) (antibody) | 4.4 | 0.36 | 36 | 3.69 |  |  |  |  |  |  |  |  |  |  | 
25 | anti-CD20 IgG variant A3A-14 (S298N, A378V) (antibody) |  | 12.8 |  |  | 0.7 | 12.8 | 0.82 | 341 | 0.7 | 1.1 | 0.8 | 0.9 | 1.6 |  | 
26 | anti-CD20 IgG variant J3A-14 (K326T) (antibody) |  |  |  |  | 3.7 |  | 7.39 | 64.1 |  |  |  |  |  |  | 
27 | anti-CD20 IgG variant G3A-95 (I336T, A378V) (antibody) |  | 10.8 |  |  | 1.3 | 10.8 | 0.97 | 177 | 1.34 | 0.7 | 0.9 | 1 | 1.3 |  | 
28 | anti-CD20 IgG variant G3A-45 (K246R, A378V) (antibody) |  |  |  |  |  |  |  |  |  |  |  |  |  | 195 | 1.34

Source: US20180030111A1
